Results: patent US20190135932A1 (Pfizer, published 2019)
Several values for one entry are separate records, joined by “and”; a condition that tells them apart may be missing. Equal entries are not always repeated.

T1: human OX40R-Ig fusion protein (extracellular domain, amino acids 1-220, of human OX40R fused to the constant … (human, UniProt P43489 29-220))
T1 construct: range 1-220; Range 1-220 as printed; also called OX40-Ig; OX40-human IgG1 fusion protein; not shown: constant region of human IgG1
T1 sequence (looked up): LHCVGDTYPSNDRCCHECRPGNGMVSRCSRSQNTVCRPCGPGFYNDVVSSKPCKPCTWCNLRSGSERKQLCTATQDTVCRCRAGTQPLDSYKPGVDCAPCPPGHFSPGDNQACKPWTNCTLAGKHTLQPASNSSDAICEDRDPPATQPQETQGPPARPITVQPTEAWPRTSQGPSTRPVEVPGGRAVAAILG

T2: human OX40R on activated primary human T cells (human, UniProt P43489 29-277)
T2 sequence (looked up): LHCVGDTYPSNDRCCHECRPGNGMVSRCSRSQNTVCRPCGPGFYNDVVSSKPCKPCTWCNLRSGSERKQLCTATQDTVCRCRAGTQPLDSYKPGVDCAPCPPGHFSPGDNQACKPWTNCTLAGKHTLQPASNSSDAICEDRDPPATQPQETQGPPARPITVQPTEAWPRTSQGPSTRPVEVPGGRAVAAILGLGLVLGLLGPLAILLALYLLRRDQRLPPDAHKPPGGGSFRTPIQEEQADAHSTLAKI

B1: human monoclonal antibody 11D4 (antibody, V domains shown)
VH: EVQLVESGGGLVQPGGSLRLSCAASGFTFSSYSMNWVRQAPGKGLEWVSYISSSSSTIDYADSVKGRFTISRDNAKNSLYLQMNSLRDEDTAVYYCARESGWYLFDYWGQGTLVTVSS
VL: DIQMTQSPSSLSASVGDRVTITCRASQGISSWLAWYQQKPEKAPKSLIYAASSLQSGVPSRFSGSGSGTDFTLTISSLQPEDFATYYCQQYNSYPPTFGGGTKVEIKR
notes: IgG2 heavy chain, kappa light chain; allotypes G2(n-) and Km3; Alexa Fluor 647 conjugate was used in the species cross-reactivity FACS
B2: human monoclonal antibody 18D8 (antibody, human IgG2, kappa, V domains shown)
VH: EVQLVESGGGLVQPGRSLRLSCAASGFTFDDYAMHWVRQAPGKGLEWVSGISWNSGSIGYADSVKGRFTISRDNAKNSLYLQMNSLRAEDTALYYCAKDQSTADYYFYYGMDVWGQGTTVTVSS
VL: EIVVTQSPATLSLSPGERATLSCRASQSVSSYLAWYQQKPGQAPRLLIYDASNRATGIPARFSGSGSGTDFTLTISSLEPEDFAVYYCQQRSNWPTFGQGTKVEIKR

Experiments:
[1] = target: T3, cynomolgus OX40R on activated cynomolgus monkey T cells / PBMCs (cynomolgus monkey); assay: cell-based or functional assay
[2] = target: T4, CD271-Ig (Alexis Biochemicals) (human, UniProt P08138 29-250); assay: ELISA on coated receptor-Ig fusion protein
T4 construct: extracellular domain; Bought; also called nerve growth factor receptor (CD271)
Description: (§1) Maxisorb 96-well plates (Nunc, Roskilde, Denmark) were coated with 100 μl of human TNFα receptor family member fusion proteins at 0.25 μg/ml diluted in BupH™ Carbonate buffer, pH 9.4 (Pierce, Rockford, Ill.) and incubated overnight at 4° C. The selectivity receptor fusion proteins tested included CD40-Ig (Alexis Biochemicals, San Diego, Calif.), CD137-Ig (R&D Systems, Minneapolis, Minn.) and CD271-Ig (Alexis Biochemicals, San Diego, Calif.). Also included as the positive control with each assay was the OX40-Ig fusion protein (in-house construct, Bioexpress, 97/2117). Plates were then washed three times with wash buffer containing 0.05% Tween 20 (Sigma, St Louis, Mo.) diluted in PBS and blocked with 300 μl of 0.5% BSA (Sigma, St Louis, Mo.) in PBS (Sigma, St Louis, Mo.) for 1 hour at RT°. Next, the plates were washed and 100 μl/well of anti-human OX40 reactive antibodies were added to the plates at various concentrations and incubated for 1 hour at RT°. Plates were thoroughly washed three times and OX40R antibody binding was detected with a horse radish peroxidase labeled anti-human kappa chain antibody (Bethyl Laboratories, Montgomery, Tex.) at 25 ng/ml for 1 hour at RD°. Plates were then washed three times which was followed by the addition of 100 μl/well of 1-Step Turbo-TMB substrate (Pierce, Rockford, Ill.) for 30 minutes at RT. The reaction was stopped by adding an equal volume of 2M H₂ SO₄. Absorbance was read at 450 nm on a Molecular Devices Spectra Max 340 (Molecular Devices, Sunnyvale, Calif.).

CD137-Ig (R&D Systems) = target: T5, CD137-Ig (R&D Systems) (human, UniProt Q07011 24-186); assay: ELISA on coated receptor-Ig fusion protein
T5 construct: extracellular domain; Bought; also called 4-1BB receptor (CD137)
Description: as §1

[3] = target: T6, CD40-Ig (Alexis Biochemicals) (human, UniProt P25942 21-193); assay: ELISA on coated receptor-Ig fusion protein
T6 construct: extracellular domain; Bought; also called CD40 receptor
Description: as §1

[4] = target: T3, cynomolgus OX40R on activated …; assay: FACS saturation binding on anti-CD3 and anti-CD28 stimulated cynomolgus PBMCs, average over 14 individual monkeys
Description: OX40R-expressing cell lines (see below) or activated primary peripheral blood mononuclear cells (see below) were used to assess binding on both the human and cynomolgus OX40 receptors. Cells were harvested and washed (5×10⁵/tube) using wash buffer at RT°. The wash buffer consisted of PBS, 2% heat-inactivated fetal bovine serum (Hyclone, Logan, Utah) and 0.02% sodium azide (Sigma, St. Louis, Mo.). Next, 100 μl of various concentrations of antibody was added to the cells (starting at 30 ug/ml and using a 3-fold titration) diluted in wash buffer containing 0.005 mg/ml of cytocholasin B (Sigma, St. Louis, Mo.). The cells were gently rocked at RT° for 3 hours. Next, the cells were washed twice and resuspended in 0.5 ml/tube with cold wash buffer and 10,000 events were collected and analyzed using a Becton Dickinson FACSCalibur and CellQuest software (San Jose, Calif.).
Cynomolgus whole blood was obtained using heparinized vacutainer tubes (BD; Franklin Lakes, N.J.) and was diluted 1:4 in PBS. Diluted whole blood was mixed and 15 mls was carefully layered over an equal volume of Histopaque 1077 (Sigma, St Louis, Mo.). […] After a PBS wash, the PBMCs were counted and readjusted to 1×10⁶/ml in tissue culture medium (TCM). […]

[5] = target: T1, human OX40R-Ig fusion protein …; assay: ELISA on coated OX40-Ig fusion protein
[6] = target: T2, human OX40R on activated primary human …; assay: cell-based or functional assay
[7] = target: T2, human OX40R on activated primary human …; assay: cell-based or functional assay; remark: listed apart in the source

T4 sequence (P08138 29-250): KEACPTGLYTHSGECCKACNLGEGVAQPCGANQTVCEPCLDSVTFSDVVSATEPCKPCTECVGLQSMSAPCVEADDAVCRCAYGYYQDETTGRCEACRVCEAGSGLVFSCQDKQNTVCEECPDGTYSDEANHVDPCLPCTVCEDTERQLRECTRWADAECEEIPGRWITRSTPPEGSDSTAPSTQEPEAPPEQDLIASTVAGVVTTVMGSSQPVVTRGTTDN
T5 sequence (Q07011 whole entry, the tested form may be a part): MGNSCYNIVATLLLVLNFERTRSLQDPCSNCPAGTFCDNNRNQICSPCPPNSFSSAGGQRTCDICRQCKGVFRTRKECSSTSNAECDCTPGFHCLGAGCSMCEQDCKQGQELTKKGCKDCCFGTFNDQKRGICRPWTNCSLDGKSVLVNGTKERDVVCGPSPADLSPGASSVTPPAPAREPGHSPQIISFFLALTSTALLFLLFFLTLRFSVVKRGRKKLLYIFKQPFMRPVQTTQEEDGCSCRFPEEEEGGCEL
T6 sequence (P25942 21-193): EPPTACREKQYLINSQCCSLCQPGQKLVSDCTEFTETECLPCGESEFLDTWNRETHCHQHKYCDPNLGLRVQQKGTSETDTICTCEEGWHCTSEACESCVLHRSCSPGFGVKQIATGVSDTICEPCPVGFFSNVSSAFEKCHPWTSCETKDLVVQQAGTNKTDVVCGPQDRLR

Row | Binder | EC50 of anti-CD3 induced IL-2 production by monkey cells (mean of 1:3 dilution curves, N=3) [1] [µg/mL] | Selectivity (binding) [2] | Selectivity (binding) (CD137-Ig (R&D Systems)) | Selectivity (binding) [3] | EC50 [4] [µg/mL] | EC50 [5] | Augmentation of T Cell Activity (EC50): CD3 induced IL-2 production (N = 4) [6] | Augmentation of T Cell Activity (EC50): Stimulation of IL-2 production by antigen-primed cells (N = 1) [6] | Selectivity (Binding to CD40, CD137, CD271) [2] [nM] | Selectivity (Binding to CD40, CD137, CD271) (CD137-Ig (R&D Systems)) [nM] | Selectivity (Binding to CD40, CD137, CD271) [3] [nM] | EC50 of anti-CD3 induced IL-2 production by primary human T cells, donor four [7] [µg/mL] | EC50 of anti-CD3 induced IL-2 production by primary human T cells, donor one [7] [µg/mL] | EC50 of anti-CD3 induced IL-2 production by primary human T cells, donor three [7] [µg/mL] | EC50 of anti-CD3 induced IL-2 production by primary human T cells, donor two [7] [µg/mL]
1 | B1 | 0.022 | > 100 µg/mL and > 700 nM | > 100 µg/mL and > 700 nM | > 100 µg/mL and > 700 nM | 0.354 | – | – | – | – | – | – | – | – | – | –
2 | B2 | – | – | – | – | – | 0.034 µg/mL and 0.23 nM | 0.049 µg/ml and 0.33 nM | 0.014 µg/ml and 0.1 nM | > 700 | > 700 | > 700 | 0.024 | 0.024 | 0.013 | 0.135
